According to publication PMC8571082 (2021):

B1: Mint3NT, N-terminal fragment (1–214) of Mint3 [human] / factor inhibiting HIF-1 (FIH-1), full-length [human] (parent complex)
chain 1: MDFPTISRSPSGPPAMDLEGPRDILVPSEDLTPDSQWDPMPGGPGSLSRMELDESSLQELVQQFEALPGDLVGPSPGGAPCPLHIATGHGLASQEIADAHGLLSAEAGRDDLLGLLHCEECPPSQTGPEEPLEPAPRLLQPPEDPDEDSDSPEWVEGASAEQEGSRSSSSSPEPWLETVPLVTPEEPPAGAQSPETLASYPAPQEVPGPCDHED
chain 2: MAATAAEAVASGSGEPREEAGALGPAWDESQLRSYSFPTRPIPRLSQSDPRAEELIENEEPVVLTDTNLVYPALKWDLEYLQENIGNGDFSVYSASTHKFLYYDEKKMANFQNFKPRSNREEMKFHEFVEKLQDIQQRGGEERLYLQQTLNDTVGRKIVMDFLGFNWNWINKQQGKRGWGQLTSNLLLIGMEGNVTPAHYDEQQNFFAQIKGYKRCILFPPDQFECLYPYPVHHPCDRQSQVDFDNPDYERFPNFQNVVGYETVVGPGDVLYIPMYWWHHIESLLNGGITITVNFWYKGAPTPKRIEYPLKAHQKVAIMRNIEKMLGEALGNPQEVGPLLNTMIKGRYN

Variants of: B1
Assay: ITC; measured three times for each FIH-1 mutant

| Variant | dG |
| --- | --- |
| chain 2 E250A | -9 kcal/mol |
| chain 2 E29A | -9.1 kcal/mol |
| chain 2 E79A | -8.7 kcal/mol |
| chain 2 D248A | -9.3 kcal/mol |

Second part, the variant after the results:

| dG | Variant |
| --- | --- |
| -8.6 kcal/mol | chain 2 Y71A |
| -8.8 kcal/mol | chain 2 K75A |
| -8.7 kcal/mol | chain 2 N171A |
